Assays:
RelA homodimer [1] = target: T1, RelA homodimer (UniProt Q04206 1-551); assay: EMSA; EMSA: 10 mM Tris-HCl pH 7.5, 50 mM NaCl, 10% glycerol, 1% NP-40, 1 mM EDTA, 0.1 mg/mL salmon sperm DNA, room temp; BLI: 25 mM Tris-HCl pH 7.5, 150 mM NaCl, 0.02% Tween 20, 0.1 mg/mL salmon sperm DNA, 1 mM DTT; settings: protein: recombinant; tags: His; chain copies: 2; label: 32P
[2] = target: T2, Tead3 (affinity-purified) (UniProt Q99594 1-435); assay: as above; settings: protein: recombinant; label: 32P
[3] = target: T3, Nfatc1 (affinity-purified) (UniProt O95644 1-698); assay: as above; settings: protein: recombinant; label: 32P
T3 sequence: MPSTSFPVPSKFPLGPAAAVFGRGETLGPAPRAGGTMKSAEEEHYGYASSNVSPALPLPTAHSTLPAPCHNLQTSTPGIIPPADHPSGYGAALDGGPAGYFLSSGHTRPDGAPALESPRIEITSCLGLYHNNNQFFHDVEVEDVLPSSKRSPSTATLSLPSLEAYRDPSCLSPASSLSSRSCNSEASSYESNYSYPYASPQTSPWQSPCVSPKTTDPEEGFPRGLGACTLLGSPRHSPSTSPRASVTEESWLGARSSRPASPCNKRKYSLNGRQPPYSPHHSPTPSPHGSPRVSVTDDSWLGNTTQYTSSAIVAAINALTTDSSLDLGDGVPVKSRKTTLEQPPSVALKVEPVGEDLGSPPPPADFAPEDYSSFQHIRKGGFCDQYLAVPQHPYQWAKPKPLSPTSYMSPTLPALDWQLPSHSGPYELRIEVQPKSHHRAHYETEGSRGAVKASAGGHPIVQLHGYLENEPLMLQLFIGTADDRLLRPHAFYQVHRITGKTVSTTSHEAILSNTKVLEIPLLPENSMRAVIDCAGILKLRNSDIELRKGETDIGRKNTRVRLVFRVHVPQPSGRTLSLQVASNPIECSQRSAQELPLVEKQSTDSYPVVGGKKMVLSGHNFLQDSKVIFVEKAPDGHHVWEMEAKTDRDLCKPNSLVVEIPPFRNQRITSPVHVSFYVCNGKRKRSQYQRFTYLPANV

[4] = target: T4, p50:RelA heterodimer, RelA chain;p50:RelA heterodimer, p50 chain (;, UniProt Q04206;P19838 1-551;1-435, |); assay: as above; settings: protein: recombinant;recombinant; tags: His;His; copies: 1;1; label: 32P
Nfat5 RHR WT = target: T5, Nfat5 RHR WT (UniProt O94916 264-544); assay: EMSA; no observable binding; EMSA: 10 mM Tris-HCl pH 7.5, 50 mM NaCl, 10% glycerol, 1% NP-40, 1 mM EDTA, 0.1 mg/mL salmon sperm DNA, room temp; BLI: 25 mM Tris-HCl pH 7.5, 150 mM NaCl, 0.02% Tween 20, 0.1 mg/mL salmon sperm DNA, 1 mM DTT; settings: protein: recombinant; chain copies: 2; label: 32P
T5 sequence: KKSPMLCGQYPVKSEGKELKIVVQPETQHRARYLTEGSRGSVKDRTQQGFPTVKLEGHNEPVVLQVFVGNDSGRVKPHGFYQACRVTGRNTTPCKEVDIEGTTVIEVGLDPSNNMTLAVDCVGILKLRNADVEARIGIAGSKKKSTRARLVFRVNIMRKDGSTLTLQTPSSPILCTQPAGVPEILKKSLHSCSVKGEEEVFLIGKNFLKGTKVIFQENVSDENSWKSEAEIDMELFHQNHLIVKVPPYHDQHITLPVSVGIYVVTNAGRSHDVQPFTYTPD

Nfat5 RHR mutant = target: T6, Nfat5 RHR mutant (UniProt O94916 264-544, R295S;Y296S); assay: as above; settings: protein: recombinant; chain copies: 2; label: 32P
T6 sequence: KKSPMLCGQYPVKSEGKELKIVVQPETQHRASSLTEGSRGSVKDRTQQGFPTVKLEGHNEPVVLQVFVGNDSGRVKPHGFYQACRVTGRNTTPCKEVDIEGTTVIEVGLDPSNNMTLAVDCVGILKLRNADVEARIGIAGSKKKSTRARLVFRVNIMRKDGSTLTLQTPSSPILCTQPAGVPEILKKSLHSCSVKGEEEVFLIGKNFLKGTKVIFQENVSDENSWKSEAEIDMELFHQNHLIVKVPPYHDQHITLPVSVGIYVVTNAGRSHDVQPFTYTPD

[5] = target: T2, Tead3 (affinity-purified); assay: EMSA; strong site only; EMSA: 10 mM Tris-HCl pH 7.5, 50 mM NaCl, 10% glycerol, 1% NP-40, 1 mM EDTA, 0.1 mg/mL salmon sperm DNA, room temp; BLI: 25 mM Tris-HCl pH 7.5, 150 mM NaCl, 0.02% Tween 20, 0.1 mg/mL salmon sperm DNA, 1 mM DTT; settings: protein: recombinant; label: 32P
RelA homodimer [6] = target: T1, RelA homodimer; assay: EMSA; no discernible effect of mutation; EMSA: 10 mM Tris-HCl pH 7.5, 50 mM NaCl, 10% glycerol, 1% NP-40, 1 mM EDTA, 0.1 mg/mL salmon sperm DNA, room temp; BLI: 25 mM Tris-HCl pH 7.5, 150 mM NaCl, 0.02% Tween 20, 0.1 mg/mL salmon sperm DNA, 1 mM DTT; settings: protein: recombinant; tags: His; chain copies: 2; label: 32P
[7] = target: T4, p50:RelA heterodimer, RelA …; assay: as above; settings: protein: recombinant;recombinant; tags: His;His; copies: 1;1; label: 32P
RelA homodimer [8] = target: T1, RelA homodimer; assay: EMSA; binding retained; EMSA: 10 mM Tris-HCl pH 7.5, 50 mM NaCl, 10% glycerol, 1% NP-40, 1 mM EDTA, 0.1 mg/mL salmon sperm DNA, room temp; BLI: 25 mM Tris-HCl pH 7.5, 150 mM NaCl, 0.02% Tween 20, 0.1 mg/mL salmon sperm DNA, 1 mM DTT; settings: protein: recombinant; tags: His; chain copies: 2; label: 32P
[9] = target: T4, p50:RelA heterodimer, RelA …; assay: as above; settings: protein: recombinant;recombinant; tags: His;His; copies: 1;1; label: 32P
[10] = target: T2, Tead3 (affinity-purified); assay: EMSA; weak site only; EMSA: 10 mM Tris-HCl pH 7.5, 50 mM NaCl, 10% glycerol, 1% NP-40, 1 mM EDTA, 0.1 mg/mL salmon sperm DNA, room temp; BLI: 25 mM Tris-HCl pH 7.5, 150 mM NaCl, 0.02% Tween 20, 0.1 mg/mL salmon sperm DNA, 1 mM DTT; settings: protein: recombinant; label: 32P

T1 sequence (Q04206 whole entry): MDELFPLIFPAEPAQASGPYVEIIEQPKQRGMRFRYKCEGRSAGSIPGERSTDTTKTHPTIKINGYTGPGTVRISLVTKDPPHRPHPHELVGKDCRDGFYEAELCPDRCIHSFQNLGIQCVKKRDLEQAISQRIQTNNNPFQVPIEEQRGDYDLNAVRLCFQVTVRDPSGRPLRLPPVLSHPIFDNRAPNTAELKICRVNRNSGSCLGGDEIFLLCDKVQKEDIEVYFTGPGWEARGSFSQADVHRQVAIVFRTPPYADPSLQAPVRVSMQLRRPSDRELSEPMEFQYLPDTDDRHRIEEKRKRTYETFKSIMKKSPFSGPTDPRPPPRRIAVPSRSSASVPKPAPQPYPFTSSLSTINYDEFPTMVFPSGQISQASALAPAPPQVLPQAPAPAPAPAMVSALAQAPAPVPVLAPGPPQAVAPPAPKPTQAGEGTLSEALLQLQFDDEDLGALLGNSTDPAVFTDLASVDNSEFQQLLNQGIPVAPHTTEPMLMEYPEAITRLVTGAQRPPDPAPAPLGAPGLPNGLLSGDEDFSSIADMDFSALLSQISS
T4 sequence (Q04206 whole entry, chain 1 of 2): as the sequence (Q04206 whole entry) above
T4 sequence (P19838 1-435, chain 2 of 2): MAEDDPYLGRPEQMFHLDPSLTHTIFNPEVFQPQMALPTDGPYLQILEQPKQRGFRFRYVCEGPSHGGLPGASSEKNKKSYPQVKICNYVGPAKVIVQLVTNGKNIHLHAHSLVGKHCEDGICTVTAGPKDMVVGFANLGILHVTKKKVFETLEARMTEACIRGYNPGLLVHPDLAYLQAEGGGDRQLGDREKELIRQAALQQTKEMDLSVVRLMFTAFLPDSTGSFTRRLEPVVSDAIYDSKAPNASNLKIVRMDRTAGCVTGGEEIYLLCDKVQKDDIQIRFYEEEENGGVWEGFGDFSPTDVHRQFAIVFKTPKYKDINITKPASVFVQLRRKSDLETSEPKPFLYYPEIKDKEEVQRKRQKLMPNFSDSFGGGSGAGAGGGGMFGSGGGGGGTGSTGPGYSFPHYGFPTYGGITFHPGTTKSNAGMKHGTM
T2 sequence (Q99594 whole entry): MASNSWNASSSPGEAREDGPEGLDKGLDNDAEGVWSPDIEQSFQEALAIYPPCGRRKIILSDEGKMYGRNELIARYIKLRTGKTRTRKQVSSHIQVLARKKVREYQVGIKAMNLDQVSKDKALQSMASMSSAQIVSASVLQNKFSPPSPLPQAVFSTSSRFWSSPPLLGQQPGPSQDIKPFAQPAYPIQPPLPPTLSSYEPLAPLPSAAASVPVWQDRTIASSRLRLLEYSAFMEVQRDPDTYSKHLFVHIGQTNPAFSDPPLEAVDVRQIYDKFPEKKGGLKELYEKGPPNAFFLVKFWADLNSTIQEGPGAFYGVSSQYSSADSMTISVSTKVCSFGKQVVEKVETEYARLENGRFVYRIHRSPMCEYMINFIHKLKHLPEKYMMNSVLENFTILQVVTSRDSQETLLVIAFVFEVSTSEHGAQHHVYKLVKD

B1: 2DM Cxcl2 probe (both sites mutated) (dsDNA)
DNA 1: TCGACATGAGGGGACCCTGAGCTCAGCTAATTTGACTGGTCCCCGGGCTTTTGGAG
DNA 2: CTCCAAAAGCCCGGGGACCAGTCAAATTAGCTGAGCTCAGGGTCCCCTCATGTCGA
Q: Does B1 bind (RelA homodimer [1])?
A: Result: no binding

Q: Does B1 bind [2]?
A: Result: no binding

Q: Does B1 bind [3]?
A: Result: no binding

Q: Does B1 bind [4]?
A: Result: no binding

B2: Nfat EMSA probe (dsDNA)
DNA 1: TCGACATGAGGGGACCCTGAGCTCAGGGAATTTCCCTGGTCCCCGGGCTTTTCCAG
DNA 2: CTGGAAAAGCCCGGGGACCAGGGAAATTCCCTGAGCTCAGGGTCCCCTCATGTCGA
Q: Does B2 bind (Nfat5 RHR WT)?
A: Result: no binding

Q: Does B2 bind (Nfat5 RHR mutant)?
A: Result: no binding

B3: 2WT Cxcl2 probe (dsDNA)
DNA 1: TCGACATGAGGGGACCCTGAGCTCAGGGAATTTCCCTGGTCCCCGGGCTTTTCCAG
DNA 2: CTGGAAAAGCCCGGGGACCAGGGAAATTCCCTGAGCTCAGGGTCCCCTCATGTCGA
Q: What does the source list for B3?
A: binding result [2]: binds; binding result [3]: binds

B4: 2ΔW Cxcl2 probe (weak site mutated) (dsDNA)
DNA 1: TCGACATGAGGGGACCCTGAGCTCAGGGAATTTCCCTGGTCCCCGGGCTTTTGGAG
DNA 2: CTCCAAAAGCCCGGGGACCAGGGAAATTCCCTGAGCTCAGGGTCCCCTCATGTCGA
Q: Does B4 bind [3]?
A: Result: binds

Q: Does B4 bind [5]?
A: Result: binds

Q: Does B4 bind (RelA homodimer [6])?
A: Result: binds

Q: Does B4 bind [7]?
A: Result: binds

B5: 2ΔS Cxcl2 probe (strong site mutated) (dsDNA)
DNA 1: TCGACATGAGGGGACCCTGAGCTCAGCTAATTTGACTGGTCCCCGGGCTTTTCCAG
DNA 2: CTGGAAAAGCCCGGGGACCAGTCAAATTAGCTGAGCTCAGGGTCCCCTCATGTCGA
Q: Does B5 bind [3]?
A: Result: binds

Q: Does B5 bind (RelA homodimer [8])?
A: Result: binds

Q: Does B5 bind [9]?
A: Result: binds

Q: Does B5 bind [10]?
A: Result: no binding

Reference: publication PMC12507517, “Teamwork of clustered low-affinity κB sites and accessory factors regulates transcriptional strength of NF-κB RelA dimers”
